This is an account of results in patent US20210155689A1 (SHANGHAI PHARMAEXPLORER, published 2021).

Numbering of substitutions follows the chain as printed.

In test [1] the target is T1, human LAG-3 protein with hFc tag (hLAG-3-hFc protein) (human, UniProt P18627 23-450).
T1 construct: also called immunogen 1; LAG-3 extracellular domain protein; not shown: human IgG Fc fragment (hFc) of the pCpC vector
T1 sequence: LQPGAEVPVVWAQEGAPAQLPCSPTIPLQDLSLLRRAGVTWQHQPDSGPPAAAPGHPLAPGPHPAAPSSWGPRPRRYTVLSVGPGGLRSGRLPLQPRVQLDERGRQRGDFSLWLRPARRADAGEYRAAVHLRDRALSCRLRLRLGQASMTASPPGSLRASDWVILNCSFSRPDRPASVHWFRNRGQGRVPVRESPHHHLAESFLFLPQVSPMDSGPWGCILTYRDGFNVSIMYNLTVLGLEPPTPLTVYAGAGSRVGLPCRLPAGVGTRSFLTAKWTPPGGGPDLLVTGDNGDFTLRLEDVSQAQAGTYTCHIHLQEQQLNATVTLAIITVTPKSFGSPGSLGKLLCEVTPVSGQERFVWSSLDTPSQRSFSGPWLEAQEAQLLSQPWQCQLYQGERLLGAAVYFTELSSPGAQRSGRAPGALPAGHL
Kind of test: FACS, blocks LAG-3-hFc binding to MHC II on Raji; 66.667 nM. The protocol: (§1) The FACS reaction plate incubating the Raji cells was centrifuged to discard the supernatant. The above mixture was added as 100 μl per well to Raji cells and incubated on ice for 1-2 hours. The plate was washed twice with blocking solution (PBS, 2% fetal bovine serum) by centrifugation, added with 100 microliters of fluorescent (Alexa 488)-labeled secondary antibodies per well, and incubated on ice for 1.0 hours. The plate was washed 2-3 times by centrifugation with blocking solution (PBS, 2% fetal bovine serum), added with 100 microliters of PBS per well to suspend cells, and detected using FACS (FACS Calibur, BD) and the results were analyzed. Wherein, the IgG control was murine IgG, and the data in the table is the inhibition rate (%).
A general note: Flow cytometry measures light scatter and fluorescence of single cells or particles in a stream.

Test [2] concerns the target T1, human LAG-3 protein with hFc tag …. Nature of the test: FACS, blocks LAG-3-hFc binding to MHC II on Raji; 0.823 nM. The protocol:
as §1

Test [3] has as its target T2, hFc tagged monkey LAG-3 protein (cLAG-3-hFc protein) (monkey; human).
T2 construct: Made in HEK293 cells; also called monkey LAG-3 extracellular domain protein; not shown: human IgG Fc fragment (hFc) of the pCpC vector
T2 chain: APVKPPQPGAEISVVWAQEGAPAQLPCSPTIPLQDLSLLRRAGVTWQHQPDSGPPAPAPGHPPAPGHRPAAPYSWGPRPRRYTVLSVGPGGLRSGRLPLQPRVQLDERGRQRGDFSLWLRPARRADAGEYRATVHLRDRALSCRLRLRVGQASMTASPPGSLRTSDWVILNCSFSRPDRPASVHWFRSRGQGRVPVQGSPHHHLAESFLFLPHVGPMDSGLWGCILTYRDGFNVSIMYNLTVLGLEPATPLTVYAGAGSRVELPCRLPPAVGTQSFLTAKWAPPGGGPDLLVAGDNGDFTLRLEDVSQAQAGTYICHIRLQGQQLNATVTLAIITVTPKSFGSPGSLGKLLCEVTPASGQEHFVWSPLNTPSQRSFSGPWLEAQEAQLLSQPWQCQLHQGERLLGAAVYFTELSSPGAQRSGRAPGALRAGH
Kind of test: ELISA, cLAG-3-hFc coated; 0.0067 nM. Here is the method: (§2) The plate was sealed with plastic film and incubated overnight at 4° C. The plate was washed 2 times with the plate washing solution (PBS+0.01% Tween20) on the next day, and added with the blocking solution (PBS+0.01% Tween20+1% BSA) and blocked at room temperature for 1-2 hours. The blocking solution was poured out, and the plate was added with 50-100 μl of the antibody sample to be tested to each well, incubated at 37° C. for 1-2 hours, and washed 2-3 times with a plate washing solution (PBS+0.01% Tween20). HRP (horseradish peroxidase) labeled secondary antibody was added, and the plate was incubated at 37° C. for 1-2 hours, and washed 2-3 times with a plate washing solution (PBS+0.01% Tween20). 100 μl of TMB substrate was added to each well. After incubated at room temperature for 15-30 minutes, the plate was added with 100 μl of stop solution (1.0N HCl) to each well.
(In general: ELISA stands for enzyme-linked immunosorbent assay.)

The target in test [4] is T2, hFc tagged monkey LAG-3 protein …. Kind of test: ELISA, cLAG-3-hFc coated; 0.0001 nM. The protocol: as §2
The target is the same in test [5]. Nature of the test: ELISA, cLAG-3-hFc coated; 0.0007 nM. Here is the method: as §2
The target in test [6] is T3, human LAG-3 ECD (antigen protein of the affinity test) (human, UniProt P18627 23-450).
T3 sequence: T1 sequence
Nature of the test: SPR, CM5 chip, antibody captured by anti-human Fc IgG, antigen in flow, 1:1 fit. The protocol: First, anti-human Fc IgG was immobilized on the surface of the CM5 chip to 6000-10000 RU by amino coupling method, with FC1 as the reference channel. The coupling process was as follows: a freshly prepared 1:1 mixture of 50 mM NHS and 200 mM EDC was activated for 7 minutes, then injected with 10-50 ug/ml anti-human Fc IgG diluted in 10 mM sodium acetate ph5.0 buffer. The remaining activated sites were blocked with 1M ethanolamine. Then, HBS-EP+ buffer was used to dilute the antibody to be tested to 5 ug/ml (adjustable according to the capture level) and the antibodies were captured on the chip at a flow rate of 10 ul/min to obtain a response value of about 100˜300 RU. Then the antigen protein was diluted to 100 nM (the highest concentration was tentatively 100 nM), and flew through the chip surface at a flow rate of 30 ul/min. If enough signal value was obtained, the antigen-protein was diluted by several concentration gradients, and flew through the chip surface respectively. At the end of each cycle, the chip surface was regenerated with 10 mM Glycine at pH 1.5. The kinetic rate constant needed to be subtracted from the blank control, and the data was fitted with the global fit analysis method 1:1 combination model. The dissociation equilibrium rate constant (KD) was calculated according to the following formula: KD=kd/ka.
A general note: Surface plasmon resonance follows binding to a sensor surface in real time, without labels.

In general, Kd refers to the constant that tells how readily two partners part at equilibrium. In general, koff refers to the first-order rate constant of dissociation. Usually kon stands for the second-order rate constant of association.

B1: 405B8H3 (mouse antibody purified from hybridoma) (antibody, V domains shown)
VH: QVQLQQSGAELVRPGASVTLSCKASGYTFTDYEMHWVKQTPVHGLEWIGATDPETGNSAYNQKFKGKAIMTADKSSSTAYMELRSLTSEDSAVYYCISTGWNDWGQGTSLTVSS
VL: DIKMTQSPSSMYASLGERVTITCKASQDINSYLSWFQQKPGKSPKTLIYRADRLLDGVPSRFSGSGSGQDYSLTISSLEYGDMGIYYCLQYDEFPYTFGGGTKLEIK
notes: also called mAb103-405B8H3; 405B81-13
With B1, the “Inhibition rate (%)” value in test [1] is 94%; in test [2] it was 10.9%.

B2: 105F1E10 (mouse antibody purified from hybridoma) (antibody, V domains shown)
VH: EVQLQQSGPELVKPGASVKMSCRASGYTFTDFKMHWMKQSHGKSLEWIGYIAPNNGGTAYNQKFRGKATLTVNESSNTAYMELRSLTSEDSAVYYCVDWDDVDYWGQGTTLTVSS
VL: B1 VL with P40S, D52N, L55V, G81E, D92V, Y96L, G100A, I106L
notes: also called mAb009-105F1E10
As for B2, the “Inhibition rate (%)” value in test [1] was 93.6%; in test [2] it was 7%.

B3: 405B8H3 (LAG-3 mouse-human chimeric antibody) (antibody, V domains shown)
VH: B1 VH
VL: B1 VL
notes: also called mouse-human chimeric antibody 405B8H3
In the case of B3, the OD450 worked out at 0.46 OD450 in test [3], 0.15 OD450 in test [4] and 0.21 OD450 in test [5].

B4: 405B8H3 mouse-human chimeric antibody (antibody, V domains shown)
VH: B1 VH
VL: B1 VL
notes: also called mAb103-405B8H3
Turning to B4, in test [6], the Kd was found to be 1.96 nM, the koff is 0.000158 s⁻¹ and the kon was determined as 80400 M⁻¹ s⁻¹.

B5: 105F1E10 mouse-human chimeric antibody (antibody, V domains shown)
VH: B2 VH
VL: B1 VL with P40S, D52N, L55V, G81E, D92V, Y96L, G100A, I106L
notes: also called mAb009-105F1E10
Regarding B5, in test [6], the Kd came out at 2.51 nM, the koff was 9.66e-05 s⁻¹ and the kon came to 38500 M⁻¹ s⁻¹.

B6: 105F1E10 (LAG-3 mouse-human chimeric antibody) (antibody, V domains shown)
VH: B2 VH
VL: B1 VL with P40S, D52N, L55V, G81E, D92V, Y96L, G100A, I106L
As to B6, the figures for the OD450 in test [3], in test [4] and in test [5] were 0.26 OD450, 0.14 OD450 and 0.16 OD450, respectively.

B7: 409B11E12 (LAG-3 mouse-human chimeric antibody) (antibody, V domains shown)
VH: B1 VH with P41T, G56S, N57Y, M70L, S98A
VL: B1 VL with I2L, D52N, G81E
For B7, the OD450 in test [3] is 0.39 OD450; in test [4] it was 0.14 OD450; in test [5], 0.17 OD450.

B8: 409D4E10 (mouse antibody purified from hybridoma) (antibody, V domains shown)
VH: B1 VH with Y27N, G56D, S58T, M70L, A72T, S98T, T99S
VL: B1 VL with D52N, G81E, D92N
notes: also called mAb112-409D4E10
Regarding B8, the “Inhibition rate (%)” value in test [1] came to 96%; in test [2], 18.2%.

B9: 409D4E10 (LAG-3 mouse-human chimeric antibody) (antibody, V domains shown)
VH: B1 VH with Y27N, G56D, S58T, M70L, A72T, S98T, T99S
VL: B1 VL with D52N, G81E, D92N
For the molecule B9, the OD450 in test [3] amounted to 0.64 OD450; in test [4] it was 0.19 OD450; in test [5] it was 0.27 OD450.

B10: 409B11E12 (mouse antibody purified from hybridoma) (antibody, V domains shown)
VH: B1 VH with P41T, G56S, N57Y, M70L, S98A
VL: B1 VL with I2L, D52N, G81E
notes: also called mAb104-409B11E12
In the case of B10, the results for the “Inhibition rate (%)” value in test [1] and in test [2] were 95.5% and 15.3%, respectively.

B11: 556F6B8 mouse-human chimeric antibody (antibody, V domains shown)
VH: RVQLKQSGPGLVQPSQSLSITCTVSGFSLIKYGVHWVRQSPGEGLEWLGVIWRGGITDYNAAFMSRLSITKDNSKSQVFFKMNSLQADDTAIYYCAKWDGPLAMDYWGQGTSVTVSS
VL: DIVMTQSHKFLSTSVGDRVSITCKASQDVGTTVAWYQQKPGQSPKLLIYWASTRHTGVPDRFTGSGSGTDFTLTISNVQSEDLADYFCQQYSSYPYTFGGGTKLEIK
notes: also called mAb123-556F6B8; 556F8B8
B11: in test [6], the Kd turned out to be 3.77 nM, the koff stood at 0.000459 s⁻¹ and the kon is 122000 M⁻¹ s⁻¹.

B12: 556F6B8 (LAG-3 mouse-human chimeric antibody) (antibody, V domains shown)
VH: B11 VH
VL: B11 VL
notes: also called 556F8B8
Take B12: the results for the OD450 in test [3], in test [4] and in test [5] were 0.46 OD450, 0.18 OD450 and 0.21 OD450, respectively.

B13: 556F6B8 (mouse antibody purified from hybridoma) (antibody, V domains shown)
VH: B11 VH
VL: B11 VL
notes: also called mAb123-556F6B8
On to B13, for which the “Inhibition rate (%)” value in test [1] is 95.9%; in test [2] it was 20.1%.
